The assay deals with human CD30 (tumor necrosis factor receptor superfamily, member 8 (TNFRSF8)) (human) (UniProt P28908). Kind of assay: cell-based or functional assay.
UniProt P28908, sequence (P28908 19-595): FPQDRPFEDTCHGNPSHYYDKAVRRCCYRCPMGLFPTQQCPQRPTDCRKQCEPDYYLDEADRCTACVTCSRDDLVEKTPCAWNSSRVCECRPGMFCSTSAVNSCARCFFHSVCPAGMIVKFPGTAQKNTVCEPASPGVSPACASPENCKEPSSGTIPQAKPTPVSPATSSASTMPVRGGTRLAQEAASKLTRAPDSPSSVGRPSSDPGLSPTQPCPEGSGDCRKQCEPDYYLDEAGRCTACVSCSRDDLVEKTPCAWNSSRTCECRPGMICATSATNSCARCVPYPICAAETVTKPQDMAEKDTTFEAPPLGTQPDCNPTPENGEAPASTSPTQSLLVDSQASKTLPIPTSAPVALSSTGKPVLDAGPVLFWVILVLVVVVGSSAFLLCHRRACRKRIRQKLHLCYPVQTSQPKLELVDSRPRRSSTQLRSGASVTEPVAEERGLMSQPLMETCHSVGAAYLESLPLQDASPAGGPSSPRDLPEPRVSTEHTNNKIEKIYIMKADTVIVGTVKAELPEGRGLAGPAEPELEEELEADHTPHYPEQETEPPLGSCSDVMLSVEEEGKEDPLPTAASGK

5F11-CD8BBZ CAR yielded a CD107a degranulation, % CD8+CD107a+ cells after 4 h with CD30-bv173 cells (% of live CD3+ lymphocytes) of 25.9; a CD107a degranulation, % CD8-CD107a+ cells after 4 h with CD30-bv173 cells (% of live CD3+ lymphocytes) of 12.1; an antigen-specific IFNγ production on culture with CD30+ HH lymphoma cells of 47700.
In the case of 5F11-CD828Z CAR, the CD107a degranulation, % CD8+CD107a+ cells after 4 h with CD30-bv173 cells (% of live CD3+ lymphocytes) was 30; the CD107a degranulation, % CD8-CD107a+ cells after 4 h with CD30-bv173 cells (% of live CD3+ lymphocytes) worked out at 11.6; the IFNγ released (ELISA) after overnight culture with CD30+ HDLM-2 cells was found to be 3010 pg/mL; the IFNγ released (ELISA) after overnight culture with CD30+ SUDHL-1 cells was found to be 2300 pg/mL. For the same molecule, the antigen-specific IFNγ production on culture with CD30+ HH lymphoma cells was found to be 34300.
Take AC10-28Z CAR: the CD107a degranulation, % CD8+CD107a+ cells after 4 h with CD30+ SUDHL-1 cells (% of live CD3+ lymphocytes) turned out to be 6.18; the CD107a degranulation, % CD8-CD107a+ cells after 4 h with CD30+ SUDHL-1 cells (% of live CD3+ lymphocytes) is 1.34; the IFNγ released (ELISA) on co-culture with CD30+ HH cells amounted to 8140 pg/mL; the IFNγ released (ELISA) on co-culture with CD30+ SUDHL-1 cells was 4850 pg/mL. Also, the IFNγ released (ELISA) on co-culture with CD30-bv173 cells is 538 pg/mL.
Take XmAb2513-28Z CAR: the CD107a degranulation, % CD8+CD107a+ cells after 4 h with CD30+ SUDHL-1 cells (% of live CD3+ lymphocytes) was determined as 7.72; the CD107a degranulation, % CD8-CD107a+ cells after 4 h with CD30+ SUDHL-1 cells (% of live CD3+ lymphocytes) worked out at 1.86; the IFNγ released (ELISA) on co-culture with CD30+ HH cells was 4700 pg/mL; the IFNγ released (ELISA) on co-culture with CD30+ SUDHL-1 cells stood at 2440 pg/mL. Also, the IFNγ released (ELISA) on co-culture with CD30-bv173 cells amounted to 388 pg/mL.

B1: 5F11-28Z CAR (protein)
chain: DIQMTQSPTSLSASVGDRVTITCRASQGISSWLTWYQQKPEKAPKSLIYAASSLQSGVPSRFSGSGSGTDFTLTISSLQPEDFATYYCQQYDSYPITFGQGTRLEIKGSTSGSGKPGSGEGSTKGQVQLQQWGAGLLKPSETLSLTCAVYGGSFSAYYWSWIRQPPGKGLEWIGDINHGGGTNYNPSLKSRVTISVDTSKNQFSLKLNSVTAADTAVYYCASLTAYWGQGSLVTVSSIEVMYPPPYLDNEKSNGTIIHVKGKHLCPSPLFPGPSKPFWVLVVVGGVLACYSLLVTVAFIIFWVRSKRSRLLHSDYMNMTPRRPGPTRKHYQPYAPPRDFAAYRSRVKFSRSADAPAYQQGQNQLYNELNLGRREEYDVLDKRRGRDPEMGGKPRRKNPQEGLYNELQKDKMAEAYSEIGMKGERRRGKGHDGLYQGLSTATKDTYDALHMQALPPR
The molecule B1 returned a CD107a degranulation, % CD8+CD107a+ cells after 4 h with CD30+ SUDHL-1 cells (% of live CD3+ lymphocytes) of 47.4; a CD107a degranulation, % CD8+CD107a+ cells after 4 h with CD30-bv173 cells (% of live CD3+ lymphocytes) of 39.5; a CD107a degranulation, % CD8-CD107a+ cells after 4 h with CD30+ SUDHL-1 cells (% of live CD3+ lymphocytes) of 4.32; a CD107a degranulation, % CD8-CD107a+ cells after 4 h with CD30-bv173 cells (% of live CD3+ lymphocytes) of 6.82. The IFNγ released (ELISA) after overnight culture with CD30+ HDLM-2 cells came out at 3530 pg/mL, the IFNγ released (ELISA) after overnight culture with CD30+ SUDHL-1 cells came out at 3490 pg/mL, the IFNγ released (ELISA) on co-culture with CD30+ HH cells is 78600 pg/mL and the IFNγ released (ELISA) on co-culture with CD30+ SUDHL-1 cells was found to be 25500 pg/mL. The IFNγ released (ELISA) on co-culture with CD30-bv173 cells worked out at 3780 pg/mL; the IFNγ released (ELISA) on overnight culture with CD30+ HH cells, 0 µg/mL soluble human CD30 protein added is 23000 pg/mL; the IFNγ released (ELISA) on overnight culture with CD30+ HH cells, 0.2 µg/mL soluble human CD30 protein added stood at 18400 pg/mL; the IFNγ released (ELISA) on overnight culture with CD30+ HH cells, 1 µg/mL soluble human CD30 protein added was found to be 19900 pg/mL. Further, the IFNγ released (ELISA) on overnight culture with CD30+ HH cells, 5 µg/mL soluble human CD30 protein added was 18700 pg/mL and the antigen-specific IFNγ production on culture with CD30+ HH lymphoma cells was found to be 127000.
